One data set can be described thus: in vivo. To be noted: male, NMRI, mouse, iv. Further details: species or system NMRI mice. As to the method:
Example 5: Pharmacokinetics Intravenous (iv) PK in Mouse Pharmacokinetic parameters of the test compounds were determined after intravenous administration to Naval Medical Research Institute (NMRI) mice. Male NMRI mice were obtained either from Charles River (Germany) or from Janvier (France) weighing approximately 30 g to 40 g. Mice were housed in standard cages with light cycle of 12-hour dark and 12-hour light. Standardized food and water were offered ad libitum to the animals during the whole experimental period. The respective peptide was dissolved in 50 mM phosphate buffer (pH 7.4) containing 3.5% mannitol. Intravenous doses of 30 nmol/kg were given via a tail vein. Serial blood samples were collected from the vena saphena into tubes containing EDTA as anticoagulant at different time points up to 48 hours post dosing. After centrifugation for approximately 5 minutes, plasma samples were transferred to 96-well Polymerase Chain Reaction (PCR) plates, immediately frozen and kept at approximately −20° C. until analyzed for plasma concentration by liquid chromatography mass spectrometry (LC-MS/MS). Individual plasma concentration-time profiles were analyzed by a non-compartmental approach, and the resulting pharmacokinetic parameters were determined.

The next data set deals with human NMUR2 receptor (Homo sapiens, UniProt Q9GZQ4). The data set is described as follows: IP1 Gq HTRF assay, activation of human NMUR2 in buffer. It is filed as cell-based. Further details: expressed in transfected cells; host or cells: CHO-K1. To be noted: selectivity for NMUR2 over NMUR1 from IP1 assay in buffer (Example 3). An outline of the steps: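 IP-One HTRF competition (665/620 nm ratio) read after 1 h agonist exposure at 37 °C in pH 7.4 HEPES/HBSS stimulation buffer containing 50 mM LiCl, 0.1% BSA, 1% DMSO. Cells: CHO-K1 stably expressing human NMUR2 or NMUR1. EC50 by 4-parameter nonlinear regression of 8-point curves.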

The target of data set [1] is T1, human neuromedin U receptor 1 (human, UniProt Q9HB89 24-426).
T1 sequence (looked up): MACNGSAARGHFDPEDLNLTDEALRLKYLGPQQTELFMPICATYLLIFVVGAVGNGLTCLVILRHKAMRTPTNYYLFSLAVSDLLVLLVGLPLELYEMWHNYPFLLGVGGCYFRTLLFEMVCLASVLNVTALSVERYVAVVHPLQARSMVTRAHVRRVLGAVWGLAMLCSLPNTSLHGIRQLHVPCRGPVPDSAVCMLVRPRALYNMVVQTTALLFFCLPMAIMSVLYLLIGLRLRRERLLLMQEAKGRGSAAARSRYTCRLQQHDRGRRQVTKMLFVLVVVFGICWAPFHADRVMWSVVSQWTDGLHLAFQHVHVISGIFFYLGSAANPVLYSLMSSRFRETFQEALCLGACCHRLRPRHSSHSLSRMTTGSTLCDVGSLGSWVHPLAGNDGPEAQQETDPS
The data set is described as follows: cell-based or functional assay.

Data set [2] deals with human neuromedin U receptor 2 (human, UniProt Q9GZQ4 1-415). The data set is described as follows: cell-based or functional assay.

Residues, ends and D or L forms follow the SMILES beside them.

human neuromedin U receptor 2, sequence (Q9GZQ4 whole entry): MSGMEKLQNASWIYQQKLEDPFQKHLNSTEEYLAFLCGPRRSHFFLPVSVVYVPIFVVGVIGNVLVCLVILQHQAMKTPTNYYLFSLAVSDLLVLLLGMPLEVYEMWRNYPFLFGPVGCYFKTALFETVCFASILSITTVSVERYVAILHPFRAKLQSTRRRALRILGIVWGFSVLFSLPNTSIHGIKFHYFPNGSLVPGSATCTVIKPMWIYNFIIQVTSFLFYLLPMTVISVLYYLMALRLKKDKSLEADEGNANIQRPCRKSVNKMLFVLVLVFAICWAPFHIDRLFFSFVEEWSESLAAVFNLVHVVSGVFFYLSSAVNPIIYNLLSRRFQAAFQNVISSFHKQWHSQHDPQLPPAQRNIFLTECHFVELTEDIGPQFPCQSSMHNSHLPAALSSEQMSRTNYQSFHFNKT
human NMUR2 receptor, sequence (Q9GZQ4 whole entry): as above

`CCCCCCCCCCCCCCCCCCCC(=O)N[C@@H](CCC(=O)N[C@@H](CCC(=O)N[C@@H](CCC(=O)N(C)CC(=O)N(C)CC(=O)N(C)CC(=O)N(C)CC(=O)N(C)CC(=O)N(C)CC(=O)N(C)CC(=O)N(C)CC(=O)N(C)CC(=O)N(C)CC(=O)N(C)CC(=O)N(C)CC(=O)N(C)CC(=O)N(C)CC(=O)N(C)CC(=O)NCCN1CCN(CC(=O)N[C@@H](Cc2ccc(O)cc2)C(=O)N[C@@H](Cc2ccccc2)C(=O)N(C)[C@@H](CC(C)C)C(=O)N[C@@H](CCCC)C(=O)N[C@@H](CCCNC(=N)N)C(=O)N2CCC[C@H]2C(=O)N[C@@H](CCCNC(=N)N)C(=O)NCC(N)=O)CC1)C(=O)O)C(=O)O)C(=O)O` [Ref. 3, C20A-gGlu3-Sar15-AEPipAc-Tyr-Phe-NMeLeu-Nle-Orn-Pro-Arg-Gly-NH2, reference compound] (HELM PEPTIDE1{[CCCCCCCCCCCCCCCCCCCC(=O)[*:2]].[gGlu].[gGlu].[gGlu].[Sar].[Sar].[Sar].[Sar].[Sar].[Sar].[Sar].[Sar].[Sar].[Sar].[Sar].[Sar].[Sar].[Sar].[Sar].[O=C(CN1CCN(CCN[*:1])CC1)[*:2]].Y.F.[meL].[Nle].R.P.R.G.[am]}$$$$V2.0) showed an MRT in “in vivo” of 1.7 h. For the same molecule, the “EC50 (hNMUR1)/EC50 (hNMUR2)” value on human NMUR2 receptor is recorded as 6.1.

B1: C18A-gGlu3-Sar12-AEPipAc-Tyr-Phe-NMeLeu-Nle-Orn-Pro-Arg-Gly-NH2 (peptide)
peptide: EEEXXXXXXXXXXXXXYFLXXPRG
HELM: PEPTIDE1{[CCCCCCCCCCCCCCCCCC(=O)[*:2]].[gGlu].[gGlu].[gGlu].[Sar].[Sar].[Sar].[Sar].[Sar].[Sar].[Sar].[Sar].[Sar].[Sar].[Sar].[Sar].[O=C(CN1CCN(CCN[*:1])CC1)[*:2]].Y.F.[meL].[Nle].[Orn].P.R.G.[am]}$$$$V2.0
SMILES: CCCCCCCCCCCCCCCCCC(=O)N[C@@H](CCC(=O)N[C@@H](CCC(=O)N[C@@H](CCC(=O)N(C)CC(=O)N(C)CC(=O)N(C)CC(=O)N(C)CC(=O)N(C)CC(=O)N(C)CC(=O)N(C)CC(=O)N(C)CC(=O)N(C)CC(=O)N(C)CC(=O)N(C)CC(=O)N(C)CC(=O)NCCN1CCN(CC(=O)N[C@@H](Cc2ccc(O)cc2)C(=O)N[C@@H](Cc2ccccc2)C(=O)N(C)[C@@H](CC(C)C)C(=O)N[C@@H](CCCC)C(=O)N[C@@H](CCCN)C(=O)N2CCC[C@H]2C(=O)N[C@@H](CCCNC(=N)N)C(=O)NCC(N)=O)CC1)C(=O)O)C(=O)O)C(=O)O
Turning to B1, the “EC50 (activity as measured in Example 3)” value came to 0.37 nM in data set [1] and 0.047 nM in data set [2].

B2: C20DA-gGlu3-Sar15-AEPipAc-Tyr-Phe-Leu-Nle-Orn-Pro-Arg-Gly-NH2 (peptide)
peptide: EEEXXXXXXXXXXXXXXXXYFLXXPRG
HELM: PEPTIDE1{[O=C(O)CCCCCCCCCCCCCCCCCCC(=O)[*:2]].[gGlu].[gGlu].[gGlu].[Sar].[Sar].[Sar].[Sar].[Sar].[Sar].[Sar].[Sar].[Sar].[Sar].[Sar].[Sar].[Sar].[Sar].[Sar].[O=C(CN1CCN(CCN[*:1])CC1)[*:2]].Y.F.L.[Nle].[Orn].P.R.G.[am]}$$$$V2.0
SMILES: CCCC[C@H](NC(=O)[C@H](CC(C)C)NC(=O)[C@H](Cc1ccccc1)NC(=O)[C@H](Cc1ccc(O)cc1)NC(=O)CN1CCN(CCNC(=O)CN(C)C(=O)CN(C)C(=O)CN(C)C(=O)CN(C)C(=O)CN(C)C(=O)CN(C)C(=O)CN(C)C(=O)CN(C)C(=O)CN(C)C(=O)CN(C)C(=O)CN(C)C(=O)CN(C)C(=O)CN(C)C(=O)CN(C)C(=O)CN(C)C(=O)CC[C@H](NC(=O)CC[C@H](NC(=O)CC[C@H](NC(=O)CCCCCCCCCCCCCCCCCCC(=O)O)C(=O)O)C(=O)O)C(=O)O)CC1)C(=O)N[C@@H](CCCN)C(=O)N1CCC[C@H]1C(=O)N[C@@H](CCCNC(=N)N)C(=O)NCC(N)=O
For B2, the “EC50 (activity as measured in Example 3)” value is 75 nM in data set [1] and 3 nM in data set [2].

B3: C20A-gGlu3-Sar15-AEPipAc-Tyr-Phe-NMeLeu-Nle-Orn-Pro-Arg-Gly-NH2 (peptide)
peptide: EEEXXXXXXXXXXXXXXXXYFLXXPRG
HELM: PEPTIDE1{[CCCCCCCCCCCCCCCCCCCC(=O)[*:2]].[gGlu].[gGlu].[gGlu].[Sar].[Sar].[Sar].[Sar].[Sar].[Sar].[Sar].[Sar].[Sar].[Sar].[Sar].[Sar].[Sar].[Sar].[Sar].[O=C(CN1CCN(CCN[*:1])CC1)[*:2]].Y.F.[meL].[Nle].[Orn].P.R.G.[am]}$$$$V2.0
SMILES: CCCCCCCCCCCCCCCCCCCC(=O)N[C@@H](CCC(=O)N[C@@H](CCC(=O)N[C@@H](CCC(=O)N(C)CC(=O)N(C)CC(=O)N(C)CC(=O)N(C)CC(=O)N(C)CC(=O)N(C)CC(=O)N(C)CC(=O)N(C)CC(=O)N(C)CC(=O)N(C)CC(=O)N(C)CC(=O)N(C)CC(=O)N(C)CC(=O)N(C)CC(=O)N(C)CC(=O)NCCN1CCN(CC(=O)N[C@@H](Cc2ccc(O)cc2)C(=O)N[C@@H](Cc2ccccc2)C(=O)N(C)[C@@H](CC(C)C)C(=O)N[C@@H](CCCC)C(=O)N[C@@H](CCCN)C(=O)N2CCC[C@H]2C(=O)N[C@@H](CCCNC(=N)N)C(=O)NCC(N)=O)CC1)C(=O)O)C(=O)O)C(=O)O
Take B3: the “EC50 (activity as measured in Example 3)” value in data set [1] came to 0.33 nM; in data set [2] it was 0.054 nM.

B4: C18DA-gGlu3-Sar15-AEPipAc-Tyr-Phe-Leu-Nle-Arg-Pro-Arg-Gly-NH2 (peptide)
peptide: EEEXXXXXXXXXXXXXXXXYFLXRPRG
HELM: PEPTIDE1{[O=C(O)CCCCCCCCCCCCCCCCC(=O)[*:2]].[gGlu].[gGlu].[gGlu].[Sar].[Sar].[Sar].[Sar].[Sar].[Sar].[Sar].[Sar].[Sar].[Sar].[Sar].[Sar].[Sar].[Sar].[Sar].[O=C(CN1CCN(CCN[*:1])CC1)[*:2]].Y.F.L.[Nle].R.P.R.G.[am]}$$$$V2.0
SMILES: CCCC[C@H](NC(=O)[C@H](CC(C)C)NC(=O)[C@H](Cc1ccccc1)NC(=O)[C@H](Cc1ccc(O)cc1)NC(=O)CN1CCN(CCNC(=O)CN(C)C(=O)CN(C)C(=O)CN(C)C(=O)CN(C)C(=O)CN(C)C(=O)CN(C)C(=O)CN(C)C(=O)CN(C)C(=O)CN(C)C(=O)CN(C)C(=O)CN(C)C(=O)CN(C)C(=O)CN(C)C(=O)CN(C)C(=O)CN(C)C(=O)CC[C@H](NC(=O)CC[C@H](NC(=O)CC[C@H](NC(=O)CCCCCCCCCCCCCCCCC(=O)O)C(=O)O)C(=O)O)C(=O)O)CC1)C(=O)N[C@@H](CCCNC(=N)N)C(=O)N1CCC[C@H]1C(=O)N[C@@H](CCCNC(=N)N)C(=O)NCC(N)=O
With B4, the figures for the “EC50 (activity as measured in Example 3)” value in data set [1] and in data set [2] were 21 nM and 1.7 nM, respectively.

B5: C18A-gGlu3-Sar15-AEPipAc-Tyr-Phe-NMeLeu-Nle-Arg-Pro-Arg-Gly-NH2 (peptide)
peptide: EEEXXXXXXXXXXXXXXXXYFLXRPRG
HELM: PEPTIDE1{[CCCCCCCCCCCCCCCCCC(=O)[*:2]].[gGlu].[gGlu].[gGlu].[Sar].[Sar].[Sar].[Sar].[Sar].[Sar].[Sar].[Sar].[Sar].[Sar].[Sar].[Sar].[Sar].[Sar].[Sar].[O=C(CN1CCN(CCN[*:1])CC1)[*:2]].Y.F.[meL].[Nle].R.P.R.G.[am]}$$$$V2.0
SMILES: CCCCCCCCCCCCCCCCCC(=O)N[C@@H](CCC(=O)N[C@@H](CCC(=O)N[C@@H](CCC(=O)N(C)CC(=O)N(C)CC(=O)N(C)CC(=O)N(C)CC(=O)N(C)CC(=O)N(C)CC(=O)N(C)CC(=O)N(C)CC(=O)N(C)CC(=O)N(C)CC(=O)N(C)CC(=O)N(C)CC(=O)N(C)CC(=O)N(C)CC(=O)N(C)CC(=O)NCCN1CCN(CC(=O)N[C@@H](Cc2ccc(O)cc2)C(=O)N[C@@H](Cc2ccccc2)C(=O)N(C)[C@@H](CC(C)C)C(=O)N[C@@H](CCCC)C(=O)N[C@@H](CCCNC(=N)N)C(=O)N2CCC[C@H]2C(=O)N[C@@H](CCCNC(=N)N)C(=O)NCC(N)=O)CC1)C(=O)O)C(=O)O)C(=O)O
For B5, the “EC50 (activity as measured in Example 3)” value in data set [1] was 0.2 nM; in data set [2], 0.046 nM.

For the origin of these results see patent publication US20240279278A1, “NMU RECEPTOR 2 AGONISTS” (Boehringer Ingelheim International GmbH, priority 2023, published 2024).
